9 molecules from US12698507B2, “Methods and compositions for conferring and/or enhancing herbicide tolerance using protoporphyrinogen IX oxidase of various cyanobacteria or variant thereof” (FarmHannong Co., Ltd., priority 2019, dated 2026) can be followed below.

Numbering of substitutions follows the chain as printed. Numbers in names are those of the source.

B1: CyPPO19 A167C + F360M: variant of CyPPO19 PPO protein (SEQ ID NO: 1) (protein)
chain: MSEVDVAIVGGGLSGLSLAWRLQQSAPQYSVVLLEASDRLGGNITTQTAEGFVWELGPNSFAPTPALLQLIAEVGLQSELIRGDRHLPRYIYWRGQLYPLQPTRPLALATSNLLSPWGKVRAALGALGFVPPYLGSGDESVNSFFRRHLGQEVAERLVAPFVSGVYCGDPQQLSAAAAFRRIAQLEKLGGGLIAGALHLRRQQAPKPKPPTSVQMRPGELGSFKEGLAALPRAIAQQLKAPIHLQTPVQEITPDPKGGYLLRSGEQTWRARSVVLATPAYQTAELVAPFQPAIARVLATIPYPTVACVVLAYPAGLGRSVRPGFGVLIPRSQGIRTLGTIWSSCLFPQRTPAGWQVFTSMIGGATDPDLASLSEEAIVQQVQQDLNRLLDLPAAKARLLGMKVWRRAIPQYMVGYPEQWQQVTHALSQTPGLFLCSNYAEGVALGDRVEHGNRTAAAVAAYLSGGQP
modifications: Synthetic_PPO of Thermosynechococcus elongatus PKUAC-SCTE542 (comprising GenBank No. CP032152.1)
B2: CyPPO19 V305L + F360M: variant of CyPPO19 PPO protein (SEQ ID NO: 1) (protein)
chain: B1 chain with C167A, V305L
modifications: Synthetic_PPO of Thermosynechococcus elongatus PKUAC-SCTE542 (comprising GenBank No. CP032152.1)
B3: CyPPO19 A167C + F360L: variant of CyPPO19 PPO protein (SEQ ID NO: 1) (protein)
chain: B1 chain with M360L
modifications: Synthetic_PPO of Thermosynechococcus elongatus PKUAC-SCTE542 (comprising GenBank No. CP032152.1)
B4: CyPPO19 V305L + F360L: variant of CyPPO19 PPO protein (SEQ ID NO: 1) (protein)
chain: B1 chain with C167A, V305L, M360L
modifications: Synthetic_PPO of Thermosynechococcus elongatus PKUAC-SCTE542 (comprising GenBank No. CP032152.1)
B5: CyPPO19 V305M + F360V: variant of CyPPO19 PPO protein (SEQ ID NO: 1) (protein)
chain: B1 chain with C167A, V305M, M360V
modifications: Synthetic_PPO of Thermosynechococcus elongatus PKUAC-SCTE542 (comprising GenBank No. CP032152.1)
B6: CyPPO19 V305M + F360M: variant of CyPPO19 PPO protein (SEQ ID NO: 1) (protein)
chain: B1 chain with C167A, V305M
modifications: Synthetic_PPO of Thermosynechococcus elongatus PKUAC-SCTE542 (comprising GenBank No. CP032152.1)
B7: CyPPO19 V305M + F360I: variant of CyPPO19 PPO protein (SEQ ID NO: 1) (protein)
chain: B1 chain with C167A, V305M, M360I
modifications: Synthetic_PPO of Thermosynechococcus elongatus PKUAC-SCTE542 (comprising GenBank No. CP032152.1)
B8: CyPPO19 A167C + F360V: variant of CyPPO19 PPO protein (SEQ ID NO: 1) (protein)
chain: B1 chain with M360V
modifications: Synthetic_PPO of Thermosynechococcus elongatus PKUAC-SCTE542 (comprising GenBank No. CP032152.1)
B9: CyPPO19 V305M + F360L: variant of CyPPO19 PPO protein (SEQ ID NO: 1) (protein)
chain: B1 chain with C167A, V305M, M360L
modifications: Synthetic_PPO of Thermosynechococcus elongatus PKUAC-SCTE542 (comprising GenBank No. CP032152.1)

For this assay, the system named is PPO-deficient BT3 E. coli (ΔPPO). Kind of assay: PPO-inhibiting herbicide tolerance test of PPO variants in E. coli (growth on herbicide-containing LB agar). The assay is classed as cell-based. As to conditions: CyPPO19 variants in BT3 (ΔPPO) E. coli; LB agar with 0 to 2,000 μM herbicide, 37° C., dark, 16-20 hours. The method, boiled down:
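Tolerance was scored against wild-type enzyme: '−' for equal growth, one '+' per 10-fold gain, up to '+++++'. ΔPPO BT3 cells carrying variant plasmids, spotted as a 10-fold dilution series from OD600=0.5, grew 16-20 h at 37° C. in the dark on ampicillin LB agar containing 0 to 2,000 μM herbicide.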
Consider B1, for which the “tolerance level relative to wild type, Carfentrazone” value is listed as “+ (‘+’ per each 10-fold resistance)”; the “tolerance level relative to wild type, Flumioxazin” value is given as “++++ (‘+’ per each 10-fold resistance)”; the “tolerance level relative to wild type, Fomesafen” value is recorded as “+ (‘+’ per each 10-fold resistance)”; the “tolerance level relative to wild type, Oxyfluorfen” value is “++ (‘+’ per each 10-fold resistance)”. Further, the “tolerance level relative to wild type, Saflufenacil” value is given as “++++ (‘+’ per each 10-fold resistance)”; the “tolerance level relative to wild type, Sulfentrazone” value is listed as “+ (‘+’ per each 10-fold resistance)”; the “tolerance level relative to wild type, Tiafenacil” value is given as “++++ (‘+’ per each 10-fold resistance)”.

Regarding B2, the “tolerance level relative to wild type, Carfentrazone” value is “+ (‘+’ per each 10-fold resistance)”; the “tolerance level relative to wild type, Flumioxazin” value is “++++ (‘+’ per each 10-fold resistance)”; the “tolerance level relative to wild type, Fomesafen” value is “+++ (‘+’ per each 10-fold resistance)”; the “tolerance level relative to wild type, Oxyfluorfen” value is listed as “++ (‘+’ per each 10-fold resistance)”. The “tolerance level relative to wild type, Saflufenacil” value was “++++ (‘+’ per each 10-fold resistance)”; the “tolerance level relative to wild type, Sulfentrazone” value is recorded as “+ (‘+’ per each 10-fold resistance)”; the “tolerance level relative to wild type, Tiafenacil” value was “+++ (‘+’ per each 10-fold resistance)”.

With B3, the “tolerance level relative to wild type, Carfentrazone” value is on record as “+ (‘+’ per each 10-fold resistance)”; the “tolerance level relative to wild type, Flumioxazin” value was “+++ (‘+’ per each 10-fold resistance)”; the “tolerance level relative to wild type, Fomesafen” value was “+ (‘+’ per each 10-fold resistance)”; the “tolerance level relative to wild type, Oxyfluorfen” value is “+ (‘+’ per each 10-fold resistance)”. In addition, the “tolerance level relative to wild type, Saflufenacil” value was “+++ (‘+’ per each 10-fold resistance)”; the “tolerance level relative to wild type, Sulfentrazone” value is “+ (‘+’ per each 10-fold resistance)”; the “tolerance level relative to wild type, Tiafenacil” value is on record as “+++ (‘+’ per each 10-fold resistance)”.

Consider B4, for which the “tolerance level relative to wild type, Carfentrazone” value is reported as “+ (‘+’ per each 10-fold resistance)”; the “tolerance level relative to wild type, Flumioxazin” value is reported as “++++ (‘+’ per each 10-fold resistance)”; the “tolerance level relative to wild type, Fomesafen” value was “+++ (‘+’ per each 10-fold resistance)”; the “tolerance level relative to wild type, Oxyfluorfen” value is “++ (‘+’ per each 10-fold resistance)”. Besides, the “tolerance level relative to wild type, Saflufenacil” value is recorded as “++++ (‘+’ per each 10-fold resistance)”; the “tolerance level relative to wild type, Sulfentrazone” value is reported as “++ (‘+’ per each 10-fold resistance)”; the “tolerance level relative to wild type, Tiafenacil” value is listed as “++++ (‘+’ per each 10-fold resistance)”.

As for B5, the “tolerance level relative to wild type, Carfentrazone” value was “+ (‘+’ per each 10-fold resistance)”; the “tolerance level relative to wild type, Flumioxazin” value is listed as “++++ (‘+’ per each 10-fold resistance)”; the “tolerance level relative to wild type, Fomesafen” value was “+ (‘+’ per each 10-fold resistance)”; the “tolerance level relative to wild type, Oxyfluorfen” value is recorded as “++ (‘+’ per each 10-fold resistance)”. Moreover, the “tolerance level relative to wild type, Saflufenacil” value is “++++ (‘+’ per each 10-fold resistance)”; the “tolerance level relative to wild type, Sulfentrazone” value is listed as “+ (‘+’ per each 10-fold resistance)”; the “tolerance level relative to wild type, Tiafenacil” value is “++++ (‘+’ per each 10-fold resistance)”.

With B6, the “tolerance level relative to wild type, Carfentrazone” value was “+ (‘+’ per each 10-fold resistance)”; the “tolerance level relative to wild type, Flumioxazin” value is listed as “++++ (‘+’ per each 10-fold resistance)”; the “tolerance level relative to wild type, Fomesafen” value was “+++ (‘+’ per each 10-fold resistance)”; the “tolerance level relative to wild type, Oxyfluorfen” value is recorded as “++ (‘+’ per each 10-fold resistance)”. For the same molecule, the “tolerance level relative to wild type, Saflufenacil” value is given as “++++ (‘+’ per each 10-fold resistance)”; the “tolerance level relative to wild type, Sulfentrazone” value is “++ (‘+’ per each 10-fold resistance)”; the “tolerance level relative to wild type, Tiafenacil” value is listed as “++++ (‘+’ per each 10-fold resistance)”.

Regarding B7, the “tolerance level relative to wild type, Carfentrazone” value is reported as “+ (‘+’ per each 10-fold resistance)”; the “tolerance level relative to wild type, Flumioxazin” value was “++++ (‘+’ per each 10-fold resistance)”; the “tolerance level relative to wild type, Fomesafen” value is “+ (‘+’ per each 10-fold resistance)”; the “tolerance level relative to wild type, Oxyfluorfen” value is “+ (‘+’ per each 10-fold resistance)”. The “tolerance level relative to wild type, Saflufenacil” value is “++++ (‘+’ per each 10-fold resistance)”; the “tolerance level relative to wild type, Sulfentrazone” value is given as “++ (‘+’ per each 10-fold resistance)”; the “tolerance level relative to wild type, Tiafenacil” value is on record as “++++ (‘+’ per each 10-fold resistance)”.

Consider B8, for which the “tolerance level relative to wild type, Carfentrazone” value was “+ (‘+’ per each 10-fold resistance)”; the “tolerance level relative to wild type, Flumioxazin” value is given as “+++ (‘+’ per each 10-fold resistance)”; the “tolerance level relative to wild type, Fomesafen” value was “+ (‘+’ per each 10-fold resistance)”; the “tolerance level relative to wild type, Oxyfluorfen” value was “+ (‘+’ per each 10-fold resistance)”. The “tolerance level relative to wild type, Saflufenacil” value is given as “+++ (‘+’ per each 10-fold resistance)”; the “tolerance level relative to wild type, Sulfentrazone” value is “+ (‘+’ per each 10-fold resistance)”; the “tolerance level relative to wild type, Tiafenacil” value was “++++ (‘+’ per each 10-fold resistance)”.

As to B9, the “tolerance level relative to wild type, Carfentrazone” value is “+ (‘+’ per each 10-fold resistance)”; the “tolerance level relative to wild type, Flumioxazin” value is “++++ (‘+’ per each 10-fold resistance)”; the “tolerance level relative to wild type, Fomesafen” value is reported as “++ (‘+’ per each 10-fold resistance)”; the “tolerance level relative to wild type, Oxyfluorfen” value was “++ (‘+’ per each 10-fold resistance)”. Moreover, the “tolerance level relative to wild type, Saflufenacil” value is “++++ (‘+’ per each 10-fold resistance)”; the “tolerance level relative to wild type, Sulfentrazone” value is “++ (‘+’ per each 10-fold resistance)”; the “tolerance level relative to wild type, Tiafenacil” value is on record as “++++ (‘+’ per each 10-fold resistance)”.
